Publication PMC5871717, “Transposase-DNA Complex Structures Reveal Mechanisms for Conjugative Transposition of Antibiotic Resistance” (Cell, 2018)
Where a chain is given by its changes, count along the chain named. Numbers in names are those of the source.

Tests used:
[1] = molecular target: the molecule itself; assay: crystal structure; Int^82N (R225K or wild type) with 44 bp CI5 dsDNA at 2:1 molar ratio in Buffer C; vapor diffusion at 20°C; 2.8 Å
[2] = molecular target: the molecule itself; assay: SEC; analytical size exclusion chromatography on Superdex 200 10/300, proteins without DNA
381C = 381C (Enterococcus faecalis, UniProt Q7BP35 82-381); assay: EMSA; monomeric and higher oligomers; […] (50 mM HEPES pH 7.5, 250 mM NaCl, 5 mM DTT, 10% glycerol), […]; conditions: protein: recombinant; tags: 6xHis-SUMO removed by SenP2; label: 5'-32P in EMSA; none in crystals; 44 bp; terminal T/T mismatch as printed
390C = 390C (Enterococcus faecalis, UniProt Q7BP35 82-390); assay: as above; conditions: protein: recombinant; tags: 6xHis-SUMO removed by SenP2; label: 5'-32P in EMSA; none in crystals; 44 bp; terminal T/T mismatch as printed
Int82N(R225K) = molecular target: T1, Int82N(R225K) (Enterococcus faecalis, UniProt Q7BP35 82-397, R225K); assay: X-ray crystallography; 2 protein:1 DNA; […] (50 mM HEPES pH 7.5, 250 mM NaCl, 5 mM DTT, 10% glycerol), […]; conditions: protein: recombinant, tags: 6xHis-SUMO removed by SenP2, extra N-terminal S81, chain copies: 2, terminal T/T mismatch as printed
T1 sequence: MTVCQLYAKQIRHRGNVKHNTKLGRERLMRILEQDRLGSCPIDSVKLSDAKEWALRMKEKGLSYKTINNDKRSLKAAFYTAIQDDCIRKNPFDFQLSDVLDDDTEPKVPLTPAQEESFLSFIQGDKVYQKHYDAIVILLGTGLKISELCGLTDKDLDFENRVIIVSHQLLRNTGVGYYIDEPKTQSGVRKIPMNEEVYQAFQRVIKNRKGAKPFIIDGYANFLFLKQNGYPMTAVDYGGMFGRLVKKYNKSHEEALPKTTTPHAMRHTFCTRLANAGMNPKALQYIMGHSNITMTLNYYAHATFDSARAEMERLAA

Int82N [3] = molecular target: T2, Int82N (Enterococcus faecalis, UniProt Q7BP35 82-397); assay: X-ray crystallography; wild-type catalytic residues; […] (50 mM HEPES pH 7.5, 250 mM NaCl, 5 mM DTT, 10% glycerol), […]; conditions: protein: recombinant; tags: 6xHis-SUMO removed by SenP2; extra N-terminal S81; chain copies: 2; label: 5'-32P in EMSA; none in crystals; 44 bp; terminal T/T mismatch as printed
T2 sequence: T1 sequence with K144R

Int82N [4] = molecular target: T2, Int82N; assay: 2AP fluorescence; base-flipping readout; […] (50 mM HEPES pH 7.5, 250 mM NaCl, 5 mM DTT, 10% glycerol), […]; conditions: protein: recombinant; tags: 6xHis-SUMO removed by SenP2; extra N-terminal S81; chain copies: 2; label: 2AP; 44 nt strands; 2AP opposite C at one flipped base; terminal T/T mismatch
[5] = molecular target: T3, Int82N (HJ-bound tetramer) (Enterococcus faecalis, UniProt Q7BP35 82-397); assay: EMSA; 4:1 protein:HJ; […] (50 mM HEPES pH 7.5, 250 mM NaCl, 5 mM DTT, 10% glycerol), […]; conditions: protein: recombinant; tags: 6xHis-SUMO removed by SenP2; chain copies: 4; four-way junction of 4 strands
T3 sequence: T1 sequence with K144R

Int82N [6] = molecular target: T2, Int82N; assay: EMSA; 2:1 complex; similar affinity to CI5; […] (50 mM HEPES pH 7.5, 250 mM NaCl, 5 mM DTT, 10% glycerol), […]; conditions: protein: recombinant; tags: 6xHis-SUMO removed by SenP2; extra N-terminal S81; chain copies: 2; 45 bp; terminal T/T mismatch as printed
Int82N(Y379F) = molecular target: T4, Int82N(Y379F) (Enterococcus faecalis, UniProt Q7BP35 82-397, Y379F); assay: X-ray crystallography; […] (50 mM HEPES pH 7.5, 250 mM NaCl, 5 mM DTT, 10% glycerol), […]; conditions: protein: recombinant; tags: 6xHis-SUMO removed by SenP2; 5' overhang 6 nt
T4 sequence: T1 sequence with K144R, Y298F

B1: Int^82N(R225K), catalytic mutant of Tn1549 Int aa 82–397 (domain or fragment, Enterococcus faecalis)
chain: SMTVCQLYAKQIRHRGNVKHNTKLGRERLMRILEQDRLGSCPIDSVKLSDAKEWALRMKEKGLSYKTINNDKRSLKAAFYTAIQDDCIRKNPFDFQLSDVLDDDTEPKVPLTPAQEESFLSFIQGDKVYQKHYDAIVILLGTGLKISELCGLTDKDLDFENRVIIVSHQLLRNTGVGYYIDEPKTQSGVRKIPMNEEVYQAFQRVIKNRKGAKPFIIDGYANFLFLKQNGYPMTAVDYGGMFGRLVKKYNKSHEEALPKTTTPHAMRHTFCTRLANAGMNPKALQYIMGHSNITMTLNYYAHATFDSARAEMERLAA
notes: additional residue S81 left after SenP2 cleavage of the purification tags; Tn1549 integrase (Int), Enterococcus faecalis, GenBank AAF72368.1, aa 82-397, with R225K; Crystallised with CI5, CI6a and CI6b DNA; also called R225K Int^82N; not shown: His6, N-terminal, cleaved; SUMO, N-terminal, cleaved
B1: binds [1].

B2: Tn1549 Int variant lacking the AB domain (aa 82–397; Int^82N), wild type (domain or fragment, Enterococcus faecalis)
chain: B1 chain with K145R
notes: additional residue S81 left after SenP2 cleavage of the purification tags; Tn1549 integrase (Int), Enterococcus faecalis, GenBank AAF72368.1, aa 82-397 (CB and CAT domains, no AB domain); full length is aa 1-397; Codon-optimised synthetic gene in pETM28 (BamHI/XhoI); also called Int^82N(wt); Tn1549 integrase; not shown: His6, N-terminal, cleaved; SUMO, N-terminal, cleaved
With B2 the “stoichiometry N” value [2] was 2.

B3: CI5 (dsDNA)
DNA 1: TGCGATAACCTAAAATTTTATAGCAAAATTATATGGGATTTTAG
DNA 2: CTAAAATCCCATATAATTTTGCTATAAAATTTTAGGTTATCGCT
B3: binds (381C); binds (390C); binds (Int82N(R225K); label: 5'-32P in EMSA, none in crystals, 44 bp). B3: binds (Int82N [3]).

B4: CI5-F (dsDNA)
DNA 1: B3 DNA 1 with A20T, C24A
DNA 2: B3 DNA 2 with G21C, T25A
modifications: 2-aminopurine (written A) at position 24 of top and 25 of bottom strand
For B4, the binding signal (Int82N [4]) was ~4.6 fold 2AP fluorescence increase.

B5: HJ (EMSA) (structured_DNA)
DNA 1: AGTGAACAGCCCACAAAATTTTGAAAATAAAATTTTAGGTTATCGCTGGCTAGTCCATGC
DNA 2: GCATGGACTAGCCAGCGATAACCTAAAATTTTATTAATAAAATTATATGGGATTT
DNA 3: CCAAATTTTTTACCGGGTTTTGAATTCAAAATTTTGTGGGCTGTTCACT
DNA 4: AAATCCCATATAATTTTATTTTCAAAACCCGGTAAAAAATTTGG
B5: binds [5].

B6: CI6a (dsDNA)
DNA 1: TGCGATAACCTAAAATTTTATTTTCAAAATTATATGGGATTTTAG
DNA 2: CTAAAATCCCATATAATTTTGAAAATAAAATTTTAGGTTATCGCT
B6: binds (Int82N(R225K); 45 bp); binds (Int82N [6]).

B7: CI6b (dsDNA)
DNA 1: B6 DNA 1 with A20C, T21C, T22C, C25T
DNA 2: B6 DNA 2 with G21A, A24G, A25G, T26G
B7: binds (Int82N(R225K); 45 bp); binds (Int82N [6]).

B8: IRR half-site (dsDNA)
DNA 1: ATTTTCAAAATTATGGGATTTTAG
DNA 2: CTAAAATCCCATATAATTTT
B8: binds (Int82N(Y379F)).
